From paper PMC8858996 (iScience, 2022)
One block for each molecule: values may come before it.

Columns and labels:
[1] = target: EphA2 WT tagged at the C-terminus with mTURQ or EYFP (UniProt P29317)
CGA-WLA-YR dimer (N-ter) = assay: ITC
CGA-WLA-YRPK dimer (5) = assay: ITC
dimer (4) = assay: ITC
FRET or BRET = target: the molecule itself; assay: FRET or BRET

- stoichiometry N (CGA-WLA-YR dimer (N-ter)): 2
Molecule: human EphA2 ligand-binding domain (residues 28-200) (from UniProt P29317 28-200) (domain or fragment)

- Kd (CGA-WLA-YRPK dimer (5)): 21 nM
- Kd (dimer (4)): 104 nM
- stoichiometry N (EphA2 LBD per peptide) (dimer (4)): 2
Molecule: human EphA2 LBD (residues 28–200) (from UniProt P29317 28-200) (domain or fragment)

Further lines, the molecule ahead of its results:

Molecule: ephrinA1-Fc (ephrinA1 extracellular region fused to the dimeric Fc portion of an antibody) (Fc fusion)
- EC50 of EphA2 autophosphorylation on Y588, endogenous EphA2 in PC3 cells, 15 min [1]: 3.8 nM

B1: EphA2 L223R/L254R/V255R tagged at the C-terminus with mTURQ or EYFP (receptor)
chain: AQGKEVVLLDFAAAGGELGWLTHPYGKGWDLMQNIMNDMPIYMYSVCNVMSGDQDNWLRTNWVYRGEAERIFIELKFTVRDCNSFPGGASSCKETFNLYYAESDLDYGTNFQKRLFTKIDTIAPDEITVSSDFEARHVKLNVEERSVGPLTRKGFYLAFQDIGACVALLSVRVYYKKCPELLQGLAHFPETIAGSDAPSRATVAGTCVDHAVVPPGGEEPRMHCAVDGEWRRPIGQCLCQAGYEKVEDACQACSPGFFKFEASESPCLECPEHTLPSPEGATSCECEEGFFRAPQDPASMPCTRPPSAPHYLTAVGMGAKVELRWTPPQDSGGREDIVYSVTCEQCWPESGECGPCEASVRYSEPPHGLTRTSVTVSDLEPHMNYTFTVEARNGVSGLVTSRSFRTASVSINQTEPPKVRLEGRSTTSLSVSWSIPPPQQSRVWKYEVTYRKKGDSNSYNVRRTEGFSVTLDDLAPDTTYLVQVQALTQEGQGAGSKVHEFQTLSPEGSGNLAVIGGVAVGVVLLLVLAGVGFFIHRRRKNQRARQSPEDVYFSKSEQLKPLKTYVDPHTYEDPNQAVLKFTTEIHPSCVTRQKVIGAGEFGEVYKGMLKTSSGKKEVPVAIKTLKAGYTEKQRVDFLGEAGIMGQFSHHNIIRLEGVISKYKPMMIITEYMENGALDKFLREKDGEFSVLQLVGMLRGIAAGMKYLANMNYVHRDLAARNILVNSNLVCKVSDFGLSRVLEDDPEATYTTSGGKIPIRWTAPEAISYRKFTSASDVWSFGIVMWEVMTYGERPYWELSNHEVMKAINDGFRLPTPMDCPSAIYQLMMQCWQQERARRPKFADIVSILDKLIRAPDSLKTLADFDPRVSIRLPSTSGSEGVPFRTVSEWLESIKMQQYTEHFMAAGYTAIEKVVQMTNDDIKRIGVRLPGHQKRIAYSLLGLKDQVNTVGIPI
- stoichiometry N (FRET or BRET): 2
